# According to IntAct's records for PubMed 29892012:
# B1: Coiled-coil alpha-helical rod protein 1 (Homo sapiens), Q8TD31 (parent)
# chain: MFPPSGSTGLIPPSHFQARPLSTLPRMAPTWLSDIPLVQPPGHQDVSERRLDTQRPQVTMWERDVSSDRQEPGRRGRSWGLEGSQALSQQAEVIVRQLQELRRLEEEVRLLRETSLQQKMRLEAQAMELEALARAEKAGRAEAEGLRAALAGAEVVRKNLEEGSQRELEEVQRLHQEQLSSLTQAHEEALSSLTSKAEGLEKSLSSLETRRAGEAKELAEAQREAELLRKQLSKTQEDLEAQVTLVENLRKYVGEQVPSEVHSQTWELERQKLLETMQHLQEDRDSLHATAELLQVRVQSLTHILALQEEELTRKVQPSDSLEPEFTRKCQSLLNRWREKVFALMVQLKAQELEHSDSVKQLKGQVASLQEKVTSQSQEQAILQRSLQDKAAEVEVERMGAKGLQLELSRAQEARRRWQQQTASAEEQLRLVVNAVSSSQIWLETTMAKVEGAAAQLPSLNNRLSYAVRKVHTIRGLIARKLALAQLRQESCPLPPPVTDVSLELQQLREERNRLDAELQLSARLIQQEVGRAREQGEAERQQLSKVAQQLEQELQQTQESLASLGLQLEVARQGQQESTEEAASLRQELTQQQELYGQALQEKVAEVETRLREQLSDTERRLNEARREHAKAVVSLRQIQRRAAQEKERSQELRRLQEEARKEEGQRLARRLQELERDKNLMLATLQQEGLLSRYKQQRLLTVLPSLLDKKKSVVSSPRPPECSASAPVAAAVPTRESIKGSLSVLLDDLQDLSEAISKEEAVCQGDNLDRCSSSNPQMSS
# partner: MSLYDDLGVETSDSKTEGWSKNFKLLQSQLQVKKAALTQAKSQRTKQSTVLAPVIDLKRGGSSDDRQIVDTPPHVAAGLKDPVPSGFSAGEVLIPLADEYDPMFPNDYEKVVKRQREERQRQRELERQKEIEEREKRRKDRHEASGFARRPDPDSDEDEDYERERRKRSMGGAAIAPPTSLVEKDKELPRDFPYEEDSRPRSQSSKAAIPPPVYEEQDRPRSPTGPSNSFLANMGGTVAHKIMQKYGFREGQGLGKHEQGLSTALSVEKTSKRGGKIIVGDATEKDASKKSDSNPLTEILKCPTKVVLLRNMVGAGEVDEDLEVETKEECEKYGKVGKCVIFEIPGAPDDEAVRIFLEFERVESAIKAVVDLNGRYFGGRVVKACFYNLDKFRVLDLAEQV
# B2: TBC1 domain family member 22B (Homo sapiens), Q9NU19 (parent)
# chain: MAAENSKQFWKRSAKLPGSIQPVYGAQHPPLDPRLTKNFIKERSKVNTVPLKNKKASSFHEFARNTSDAWDIGDDEEEDFSSPSFQTLNSKVALATAAQVLENHSKLRVKPERSQSTTSDVPANYKVIKSSSDAQLSRNSSDTCLRNPLHKQQSLPLRPIIPLVARISDQNASGAPPMTVREKTRLEKFRQLLSSQNTDLDELRKCSWPGVPREVRPITWRLLSGYLPANTERRKLTLQRKREEYFGFIEQYYDSRNEEHHQDTYRQIHIDIPRTNPLIPLFQQPLVQEIFERILFIWAIRHPASGYVQGINDLVTPFFVVFLSEYVEEDVENFDVTNLSQDMLRSIEADSFWCMSKLLDGIQDNYTFAQPGIQKKVKALEELVSRIDEQVHNHFRRYEVEYLQFAFRWMNNLLMRELPLRCTIRLWDTYQSEPEGFSHFHLYVCAAFLIKWRKEILDEEDFQGLLMLLQNLPTIHWGNEEIGLLLAEAYRLKYMFADAPNHYRR
# partner: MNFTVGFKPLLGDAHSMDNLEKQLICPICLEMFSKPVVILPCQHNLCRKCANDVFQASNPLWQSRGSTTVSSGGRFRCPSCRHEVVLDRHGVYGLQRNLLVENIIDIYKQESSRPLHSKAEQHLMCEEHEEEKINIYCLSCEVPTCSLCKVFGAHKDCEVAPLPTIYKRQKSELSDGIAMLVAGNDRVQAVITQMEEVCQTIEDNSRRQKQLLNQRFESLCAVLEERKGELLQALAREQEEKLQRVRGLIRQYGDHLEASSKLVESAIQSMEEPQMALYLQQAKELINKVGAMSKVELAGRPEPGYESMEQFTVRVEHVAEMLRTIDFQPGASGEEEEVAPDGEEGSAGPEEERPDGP
# B3: Coiled-coil alpha-helical rod protein 1 (Homo sapiens), Q8TD31 (parent)
# chain: B1 chain
# partner: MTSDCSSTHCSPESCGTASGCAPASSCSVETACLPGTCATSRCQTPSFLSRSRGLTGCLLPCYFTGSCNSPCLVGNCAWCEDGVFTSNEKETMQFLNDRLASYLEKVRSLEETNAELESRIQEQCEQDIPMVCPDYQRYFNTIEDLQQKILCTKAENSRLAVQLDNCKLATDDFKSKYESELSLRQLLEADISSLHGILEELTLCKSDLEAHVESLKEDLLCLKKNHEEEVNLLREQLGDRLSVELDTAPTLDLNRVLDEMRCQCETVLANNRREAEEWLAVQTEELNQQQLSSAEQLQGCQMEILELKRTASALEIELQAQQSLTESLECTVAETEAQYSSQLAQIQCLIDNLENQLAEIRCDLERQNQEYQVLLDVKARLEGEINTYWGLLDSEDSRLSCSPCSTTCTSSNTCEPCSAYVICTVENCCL
# B4: TBC1 domain family member 22B (Homo sapiens), Q9NU19 (parent)
# chain: B2 chain
# partner: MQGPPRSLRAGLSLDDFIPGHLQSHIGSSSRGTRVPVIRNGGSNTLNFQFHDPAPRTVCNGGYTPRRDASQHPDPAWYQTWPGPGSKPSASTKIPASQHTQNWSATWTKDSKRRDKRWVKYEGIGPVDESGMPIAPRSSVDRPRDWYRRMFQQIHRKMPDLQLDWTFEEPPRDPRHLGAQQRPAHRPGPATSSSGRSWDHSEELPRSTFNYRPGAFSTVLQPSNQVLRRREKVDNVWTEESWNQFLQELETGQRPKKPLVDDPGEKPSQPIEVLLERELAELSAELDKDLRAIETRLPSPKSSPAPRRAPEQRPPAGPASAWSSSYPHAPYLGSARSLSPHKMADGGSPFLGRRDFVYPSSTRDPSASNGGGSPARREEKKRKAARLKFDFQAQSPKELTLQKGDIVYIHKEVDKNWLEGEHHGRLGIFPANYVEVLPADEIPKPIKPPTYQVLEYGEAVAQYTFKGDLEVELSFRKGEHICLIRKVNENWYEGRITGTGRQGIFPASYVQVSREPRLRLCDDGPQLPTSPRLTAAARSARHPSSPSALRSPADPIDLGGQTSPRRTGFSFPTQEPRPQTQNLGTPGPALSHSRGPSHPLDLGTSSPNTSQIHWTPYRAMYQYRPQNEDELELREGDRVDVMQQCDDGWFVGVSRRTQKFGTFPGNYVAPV
# B5: Zyxin (Homo sapiens), Q15942 (parent)
# chain: MAAPRPSPAISVSVSAPAFYAPQKKFGPVVAPKPKVNPFRPGDSEPPPAPGAQRAQMGRVGEIPPPPPEDFPLPPPPLAGDGDDAEGALGGAFPPPPPPIEESFPPAPLEEEIFPSPPPPPEEEGGPEAPIPPPPQPREKVSSIDLEIDSLSSLLDDMTKNDPFKARVSSGYVPPPVATPFSSKSSTKPAAGGTAPLPPWKSPSSSQPLPQVPAPAQSQTQFHVQPQPQPKPQVQLHVQSQTQPVSLANTQPRGPPASSPAPAPKFSPVTPKFTPVASKFSPGAPGGSGSQPNQKLGHPEALSAGTGSPQPPSFTYAQQREKPRVQEKQHPVPPPAQNQNQVRSPGAPGPLTLKEVEELEQLTQQLMQDMEHPQRQNVAVNELCGRCHQPLARAQPAVRALGQLFHIACFTCHQCAQQLQGQQFYSLEGAPYCEGCYTDTLEKCNTCGEPITDRMLRATGKAYHPHCFTCVVCARPLEGTSFIVDQANRPHCVPDYHKQYAPRCSVCSEPIMPEPGRDETVRVVALDKNFHMKCYKCEDCGKPLSIEADDNGCFPLDGHVLCRKCHTARAQT
# B6: Zyxin (Homo sapiens), Q15942 (parent)
# chain: B5 chain
# partner: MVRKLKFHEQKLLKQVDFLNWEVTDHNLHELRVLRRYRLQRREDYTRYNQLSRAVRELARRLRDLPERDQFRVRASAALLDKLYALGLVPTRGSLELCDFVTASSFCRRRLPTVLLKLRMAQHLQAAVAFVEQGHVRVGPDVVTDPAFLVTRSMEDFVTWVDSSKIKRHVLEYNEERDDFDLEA
# B7: Coiled-coil alpha-helical rod protein 1 (Homo sapiens), Q8TD31 (parent)
# chain: B1 chain
# partner: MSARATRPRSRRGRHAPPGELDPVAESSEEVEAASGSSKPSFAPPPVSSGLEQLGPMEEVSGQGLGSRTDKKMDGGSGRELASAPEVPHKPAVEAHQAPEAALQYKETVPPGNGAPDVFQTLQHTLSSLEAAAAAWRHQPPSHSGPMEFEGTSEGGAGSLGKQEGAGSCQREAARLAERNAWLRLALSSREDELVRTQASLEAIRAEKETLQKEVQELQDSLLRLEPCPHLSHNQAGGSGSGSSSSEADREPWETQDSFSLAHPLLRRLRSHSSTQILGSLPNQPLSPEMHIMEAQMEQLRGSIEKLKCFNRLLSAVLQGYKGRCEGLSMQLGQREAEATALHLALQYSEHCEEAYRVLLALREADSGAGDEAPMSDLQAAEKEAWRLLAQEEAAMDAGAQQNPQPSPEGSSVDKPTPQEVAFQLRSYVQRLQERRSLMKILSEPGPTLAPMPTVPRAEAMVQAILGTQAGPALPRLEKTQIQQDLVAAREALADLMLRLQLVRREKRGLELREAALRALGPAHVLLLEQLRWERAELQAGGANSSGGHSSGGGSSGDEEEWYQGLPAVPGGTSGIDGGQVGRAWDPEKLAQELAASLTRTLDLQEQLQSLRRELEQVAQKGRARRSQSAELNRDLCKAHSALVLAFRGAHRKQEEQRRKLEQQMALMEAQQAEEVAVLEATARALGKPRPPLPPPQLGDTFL
# Variants of: B1
# Settings: with spf45_human RBM17, Q96I25
row,Variant,effect of a mutation on the interaction
1,W337R,disrupting interaction strength

# Variants of: B2
# Settings: with tri54_human TRIM54, Q9BYV2
row,Variant,effect of a mutation on the interaction
1,A349T,disrupting interaction strength

# Variants of: B3
# Settings: with KRT40, Q6A162
row,Variant,effect of a mutation on the interaction
1,W337R,with no effect

# Variants of: B4
# Settings: with vinex_human SORBS3, O60504
row,Variant,effect of a mutation on the interaction
1,A349T,disrupting interaction strength

# Variants of: B5
# Settings: with pf21a_human PHF21A
row,Variant,effect of a mutation on the interaction
1,R167G,with no effect

# Variants of: B6
# Settings: with imp3_human IMP3, Q9NV31
row,Variant,effect of a mutation on the interaction
1,R167G,with no effect

# Variants of: B7
# Settings: with usbp1_human USHBP1, Q8N6Y0
row,Variant,effect of a mutation on the interaction
1,W337R,disrupting interaction strength
